# Target: the molecule itself
# Assay: SEC
protein,measurement,value
"Xanthomonas albilineans Cas2 (enzyme, Cas2 of Xanthomonas albilineans, subtype I-C CRISPR-Cas system; synthetic cas2 gene in pET21a; residue numbers in the structure run to 96 (C-terminal tails 87-96 / 86-96 not modelled); also called XaCas2; WT XaCas2; not shown: His6, C-terminal, kept) MMVLVSYDVSTSSPGGDKRLRKVAKACRDLGQRVQFSVFEIEVDPAQWTALRQRLCDLIDPDIDSLRFYHLGAKWEARVEHVGAKPSLDLKGPLIF",stoichiometry N,2
